# Experimental data reported in US20250304675A1 (MHS CARE INNOVATION, published 2025).
# T1: human gastric inhibitory polypeptide (glucose-dependent insulinotropic polypeptide) (human)
# T1 construct: also called human GIP; hGIP
# T1 peptide: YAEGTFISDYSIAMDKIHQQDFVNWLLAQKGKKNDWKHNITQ
# T2: gastric inhibitory polypeptide (GIP), species not stated at the place of the result (Homo sapiens (Human), UniProt P09681 52-93)
# T2 peptide: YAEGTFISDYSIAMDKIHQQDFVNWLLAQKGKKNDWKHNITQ
# Legend:
# [1] = biological target: human gastric inhibitory polypeptide (glucose-dependent insulinotropic polypeptide) (human)
# [2] = biological target: T1, human gastric inhibitory polypeptide …; experiment: direct binding ELISA, CHO supernate on coated human GIP; 9th of 10 in the printed order
# Protocol: (§1) CHO cells co-transfected with the mammalian expression vectors were grown in culture and the supernate collected. The supernate was evaluated for the presence of GIP-binding mAbs by direct binding ELISA Human GIP was fixed to the bottom of the wells on 96-well plates. Serial dilutions of the supernate were added to different wells of the 96-well plate. After a one hour incubation, the wells were washed twice with PBS before a secondary antibody that specifically binds to human IgG was added to each well. The antibody that specifically binds to human IgG was conjugated with the enzyme horse radish peroxidase (HRP). After incubation for one hour, the wells were washed with PBS before the HRP substrate was added. If HRP was present in a well, the substrate was converted to a colored compound. The amount of color intensity was read using a spectrophotometer. The amount of color produced was proportional to the amount of HRP-antibody conjugate remaining in each well. The amount of color produced was also proportional to the amount of mAb bound to hGIP in each well.
# [3] = biological target: T2, gastric inhibitory polypeptide (GIP), …; experiment: modified Schild's assay plot, reporter cell line expressing GIP receptors (derived from a functional assay)
# [4] = biological target: T1, human gastric inhibitory polypeptide …; experiment: direct binding ELISA, CHO supernate on coated human GIP; 4th of 10 in the printed order
# Protocol: as §1
# [5] = biological target: T1, human gastric inhibitory polypeptide …; experiment: direct binding ELISA, CHO supernate on coated human GIP; 7th of 10 in the printed order
# Protocol: as §1
# [6] = biological target: T2, gastric inhibitory polypeptide (GIP), …; experiment: hybridoma screening; assay not further stated
# [7] = biological target: T1, human gastric inhibitory polypeptide …; experiment: direct binding ELISA, CHO supernate on coated human GIP; 3rd of 10 in the printed order
# Protocol: as §1
# [8] = biological target: T1, human gastric inhibitory polypeptide …; experiment: direct binding ELISA, CHO supernate on coated human GIP; 10th of 10 in the printed order
# Protocol: as §1
# [9] = biological target: T1, human gastric inhibitory polypeptide …; experiment: direct binding ELISA, CHO supernate on coated human GIP; 6th of 10 in the printed order
# Protocol: as §1
molecule,measurement,setting,value
Fc,"Relative Activity (beta-galactosidase of LGIPR3a reporter cells expressing rat GIPR; Fc mixed with 0.1 nM hGIP; bar as high as that of GIP alone, 0.098, so no neutralization)",[1],0.105
"LC1/HC3 humanized antibody (antibody, V domains shown, Tested as CHO supernate) VH: QVQLQESGAEVKKPGASVKVSCKASGFNIRDYYLHWVRQAPGQGLEWMGWIDPENGDTEYAPKFQGRVTTTADTSISTAYMELSRLRSDDTAVYYCNVYGIYFMDYWGQGTLVTVSS VL: DIQMTQSPSSVSASVGDRVTITCRASSSISSNSLHWYQQKPGKAPKLLIYRTSSLQSGVPSRFSGSGSGTDYTLTISSLQPEDFATYYCQQGSSFPRMLTFGQGTKLEIKR",binding result,[2],binds
"LC2/HC2 humanized antibody (antibody, V domains shown, CHO supernate in the ELISA; Protein A purified in the neutralization assay; also called mAbH; GIP mAbH) VH: QVQLVQSGAEVKKPGATVKISCKASGFNIRDYYLHWVQQAPGKGLEWMGWIDPENGDTEYAPKFQGRVTITADTSTNTAYMELSSLRSEDTAVYYCNVYGIYFMDYWGQGTMVTVSS VL: DIQLTQSPSSVSASVGDRVTITCRASSSISSNSLHWYQQKPGKAPKLLIYRTSNLQSGVPSRFSGSGSGTDYTLTISSLQPEDFATYYCQQGSSFPRMLTFGQGTKLEIKR",Kd,[3],2200 nM
"LC1/HC2 humanized antibody (antibody, V domains shown, Tested as CHO supernate) VH: QVQLVQSGAEVKKPGATVKISCKASGFNIRDYYLHWVQQAPGKGLEWMGWIDPENGDTEYAPKFQGRVTITADTSTNTAYMELSSLRSEDTAVYYCNVYGIYFMDYWGQGTMVTVSS VL: DIQMTQSPSSVSASVGDRVTITCRASSSISSNSLHWYQQKPGKAPKLLIYRTSSLQSGVPSRFSGSGSGTDYTLTISSLQPEDFATYYCQQGSSFPRMLTFGQGTKLEIKR",binding result,[4],binds
"LC1/HC1 humanized antibody (antibody, V domains shown, Tested as CHO supernate) VH: QVQLVQSGAEVKKPGATVKISCKVSGFNIRDYYLHWVQQAPGKGLEWMGWIDPENGDTEYAPKFQGRVTITADTSTDTAYMELSSLRSEDTAVYYCNVYGIYFMDYWGQGTMVTVSS VL: DIQMTQSPSSVSASVGDRVTITCRASSSISSNSLHWYQQKPGKAPKLLIYRTSSLQSGVPSRFSGSGSGTDYTLTISSLQPEDFATYYCQQGSSFPRMLTFGQGTKLEIKR",binding result,[5],binds
"14B9 antibody (antibody, V domains shown, Comparison antibody) VH: QVQLQESGAALVRSGASVKLSCTASGFNIKDYYFHWVKQRPDQGLEWIGWIDPENGDTEYAPNFQVKATMTADTYSNTAYLHLSSLTSEDTAVYYCNSYGNNYFDYWGQGTTVTVSS VL: DIQLTQSPAIMAASLGQKVTMTCSASSSVSSSYLHWYQQKSGASPKSLIHRTSNLASGVPARFSGSGSGTSYSLTISSVEAEDDATYYCLQWSGFPFTFGSGTKLEIKR",binding result,[6],no binding
"LC3/HC2 humanized antibody (antibody, V domains shown, Tested as CHO supernate) VH: QVQLVQSGAEVKKPGATVKISCKASGFNIRDYYLHWVQQAPGKGLEWMGWIDPENGDTEYAPKFQGRVTITADTSTNTAYMELSSLRSEDTAVYYCNVYGIYFMDYWGQGTMVTVSS VL: DIQMTQSPGTLSLSPGERATLSCRASSSISSNSLHWYQQKPGQAPRLLIYRTSNRATGIPARFSGSGSGTDYTLTISSLEPEDFAVYYCQQGSSFPRMLTFGGGTKVEIKR",binding result,[7],binds
"LC3/HC3 humanized antibody (antibody, V domains shown, Tested as CHO supernate) VH: QVQLQESGAEVKKPGASVKVSCKASGFNIRDYYLHWVRQAPGQGLEWMGWIDPENGDTEYAPKFQGRVTTTADTSISTAYMELSRLRSDDTAVYYCNVYGIYFMDYWGQGTLVTVSS VL: DIQMTQSPGTLSLSPGERATLSCRASSSISSNSLHWYQQKPGQAPRLLIYRTSNRATGIPARFSGSGSGTDYTLTISSLEPEDFAVYYCQQGSSFPRMLTFGGGTKVEIKR",binding result,[8],binds
"LC3/HC1 humanized antibody (antibody, V domains shown, Tested as CHO supernate) VH: QVQLVQSGAEVKKPGATVKISCKVSGFNIRDYYLHWVQQAPGKGLEWMGWIDPENGDTEYAPKFQGRVTITADTSTDTAYMELSSLRSEDTAVYYCNVYGIYFMDYWGQGTMVTVSS VL: DIQMTQSPGTLSLSPGERATLSCRASSSISSNSLHWYQQKPGQAPRLLIYRTSNRATGIPARFSGSGSGTDYTLTISSLEPEDFAVYYCQQGSSFPRMLTFGGGTKVEIKR",binding result,[9],binds
"10g10 monoclonal antibody (original mouse mAb) (antibody, V domains shown, Mouse hybridoma antibody; also called 10g10 mAb; 10g10 GIP mAb) VH: QVQLQESGAELVRSGASVKLSCTASGFNIRDYYLHWIKQRPEQGLEWIGWIDPENGDTEYAPKFQDKATVTADTSSNTAYLQLNSLTSEDTAVYYCNVYGIYFMDYWGQGTTVTVSS VL: DIQLTQSPSTMAASPGEKITITCSASSSISSNSLHWYQQKPGFSPKLLIYRTSNLASGVPGRFSGSGSGTSYSLTIGTMETEDVATYYCQQGSSFPRMLTFGTGTKLEIKR",Kd,[3],3200 nM
